US11931401B2, “Runx3 modified protein for prevention or treatment of cancer” (GeneCraft Inc., priority 2020, dated 2024)
“Also recorded” adds a separate entry of the source.

How the values were obtained:
BRD2 [1] = biological target: T1, BRD2 (Homo sapiens, UniProt P25440); experiment: Time-dependent BRD2-RUNX3 complex formation after serum stimulation by immunoprecipitation (IP) and immunoblotting (IB); assay type: binding; conditions: overexpressed Myc-tagged protein; FIG. 1
Experimental: The antibody targeting RUNX3 (5G4) (Cat #ab40278) was obtained from Abcam (Cambridge, UK), and the antibody was diluted 1:3000. BRD2 (M01; 1:1000; Cat #H00006046-M01, Abnova, Taipei City, Taiwan) was used for immunoblotting and immunoprecipitation.
RUNX3 phosphorylation in serine, the 356th amino acid of Runx3 protein, was measured by immunoprecipitation (IP) and immunoblotting (IB) in the same manner as described in Experimental Method 3 above.

BRD2 [2] = biological target: T1, BRD2; experiment: Time for which Runx3 protein forms a complex with Brd2 protein (IP/IB); assay type: binding; conditions: for time for which physical binding / complex with BRD2 was maintained: IP/IB
Experimental: The modified protein in which the 356th amino acid of Runx3 is substituted with alanine blocks the physical binding between Runx3 and CDK4, thereby inhibiting the phosphorylation of the 356th serine of Runx3 by CDK4. By inhibiting the conversion of the Rpa-Rx3-AC complex including Runx3 to the Rpa-Rx3-TR complex, the function of maintaining the anticancer activity of Runx3 is improved. Thus, the following experiment was performed to compare the time for the modified protein in which the 356th amino acid of Runx3 is substituted with alanine to form a complex by binding to Brd2 protein with the wild-type Runx3.
Particularly, the antibody targeting RUNX3 (5G4) (Cat #ab40278) was obtained from Abcam (Cambridge, UK), and the antibody was diluted 1:3000. BRD2 (M01; 1:1000; Cat #H00006046-M01, Abnova, Taipei City, Taiwan) was used for immunoblotting and immunoprecipitation.

lung cancer cell lines = experiment: Apoptosis by flow cytometry (FITC-Annexin V / propidium iodide), lung cancer cell lines; assay type: cell-based
Experimental: (§1) Each cell line was cultured in a 10 cm culture dish (5×10^5 cells) for 2 days and then approximately 2×10^6 cells of each cell line was infected with 1×10^8 VP of adenovirus or adenovirus Runx3 or adenovirus Runx3 S356A. After 48 hours, the cell death rate was measured by flow cytometry.

[3] = test system: stomach cancer cell lines; experiment: Apoptosis by flow cytometry (FITC-Annexin V / propidium iodide), stomach cancer cell lines; assay type: cell-based; conditions: stomach (gastric) cancer cell lines; listed as modified protein in which the 356th serine of Runx3 is substituted with alanine
Experimental: as §1

[4] = test system: pancreatic cancer cell lines; experiment: Apoptosis by flow cytometry (FITC-Annexin V / propidium iodide), pancreatic cancer cell lines; assay type: cell-based; conditions: listed as modified protein in which the 356th serine of Runx3 is substituted with alanine
Experimental: as §1

T1 sequence (P25440 whole entry): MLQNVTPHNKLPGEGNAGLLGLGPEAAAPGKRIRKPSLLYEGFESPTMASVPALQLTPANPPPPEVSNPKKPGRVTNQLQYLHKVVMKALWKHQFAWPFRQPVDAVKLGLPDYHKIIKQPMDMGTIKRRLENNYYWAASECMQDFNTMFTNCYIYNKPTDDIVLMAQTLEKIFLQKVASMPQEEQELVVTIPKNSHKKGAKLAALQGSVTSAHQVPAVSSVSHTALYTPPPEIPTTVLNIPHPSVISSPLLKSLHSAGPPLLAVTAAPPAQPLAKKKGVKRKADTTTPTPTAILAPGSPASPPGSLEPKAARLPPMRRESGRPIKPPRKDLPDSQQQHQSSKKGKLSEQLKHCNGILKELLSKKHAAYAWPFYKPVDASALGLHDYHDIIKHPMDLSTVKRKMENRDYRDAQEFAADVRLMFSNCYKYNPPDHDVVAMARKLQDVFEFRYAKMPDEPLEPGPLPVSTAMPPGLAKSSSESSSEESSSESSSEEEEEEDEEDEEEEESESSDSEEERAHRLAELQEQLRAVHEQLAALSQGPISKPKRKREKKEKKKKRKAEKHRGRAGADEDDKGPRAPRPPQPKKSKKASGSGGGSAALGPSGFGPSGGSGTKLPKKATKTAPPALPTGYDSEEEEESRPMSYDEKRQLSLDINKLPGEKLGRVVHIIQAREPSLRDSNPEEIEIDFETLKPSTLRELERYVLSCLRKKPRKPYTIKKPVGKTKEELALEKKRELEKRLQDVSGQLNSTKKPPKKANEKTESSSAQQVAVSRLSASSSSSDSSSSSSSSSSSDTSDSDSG

Molecule	time for which binding with BRD2 was maintained after the serum stimulation (BRD2 [1])	time for which physical binding / complex with BRD2 was maintained (BRD2 [2])	cancer cell killing compared to the wild-type Runx3 protein (in words) (lung cancer cell lines)	increase of apoptosis rate compared to the wild-type Runx3 protein (lung cancer cell lines; flow cytometry)	cancer cell death efficacy compared to the wild-type Runx3 protein (in words) [3]	cancer cell death efficacy compared to the wild-type Runx3 protein (in words) [4]	time after which the binding of Runx3 and BRD2 was separated (BRD2 [2]; after the binding)
S356A: Runx3 modified protein: 356th serine substituted with alanine (TCA→GCA) (protein, Myc tag; Runx3 isoform2 amino acid) MRIPVDPSTSRRFTPPSPAFPCGGGGGKMGENSGALSAQAAVGPGGRARPEVRSMVDVLADHAGELVRTDSPNFLCSVLPSHWRCNKTLPVAFKVVALGDVPDGTVVTVMAGNDENYSAELRNASAVMKNQVARFNDLRFVGRSGRGKSFTLTITVFTNPTQVATYHRAIKVTVDGPREPRRHRQKLEDQTKPFPDRFGDLERLRMRVTPSTPSPRGSLSTTSHFSSQPQTPIQGTSELNPFSDPRQFDRSFPTLPTLTESRFPDPRMHYPGAMSAAFPYSATPSGTSISSLSVAGMPATSRFHHTYLPPPYPGAPQNQSGPFQANPSPYHLYYGTSSGSYQFSMVAGSSSGGDRAPTRMLASCTSSAASVAAGNLMNPSLGGQSDGVEADGSHSNSPTALSTPGRMDEAVWRPY	≤ 8 h	up to 40 hours	more effective in killing cancer cells	≥ 2 times	more effective in killing cancer cells; also recorded: further increased the cancer cell death efficacy	more effective in killing cancer cells; also recorded: further increased the cancer cell death efficacy	–
S356 wild type: Wild-type Runx3 (Runt-related transcription factor 3) protein, 356th serine not substituted; SEQ ID NO: 2 (protein, Runx3 isoform2 amino acid) MRIPVDPSTSRRFTPPSPAFPCGGGGGKMGENSGALSAQAAVGPGGRARPEVRSMVDVLADHAGELVRTDSPNFLCSVLPSHWRCNKTLPVAFKVVALGDVPDGTVVTVMAGNDENYSAELRNASAVMKNQVARFNDLRFVGRSGRGKSFTLTITVFTNPTQVATYHRAIKVTVDGPREPRRHRQKLEDQTKPFPDRFGDLERLRMRVTPSTPSPRGSLSTTSHFSSQPQTPIQGTSELNPFSDPRQFDRSFPTLPTLTESRFPDPRMHYPGAMSAAFPYSATPSGTSISSLSVAGMPATSRFHHTYLPPPYPGAPQNQSGPFQANPSPYHLYYGTSSGSYQFSMVAGSSSGGDRSPTRMLASCTSSAASVAAGNLMNPSLGGQSDGVEADGSHSNSPTALSTPGRMDEAVWRPY	–	up to 8 hours	–	–	–	–	3 h
